Measured values taken from paper PMC5431086 (Scientific Reports, 2017).
Positions of bridges follow the written chain, without caps; N, C: chain ends. No end group written: not given here.

Tests used:
Test in all cases: enzyme inhibition assay (panel of proteases); cyc-LHSPW tested against a panel of cancer-associated proteases (Fig. 5A); conditions not given
[1] = biological target: trypsin
[2] = biological target: PSA (UniProt P07288 18-261)
[3] = biological target: KLK7 (UniProt P49862 23-253)
Chain of KLK7 (P49862 30-253): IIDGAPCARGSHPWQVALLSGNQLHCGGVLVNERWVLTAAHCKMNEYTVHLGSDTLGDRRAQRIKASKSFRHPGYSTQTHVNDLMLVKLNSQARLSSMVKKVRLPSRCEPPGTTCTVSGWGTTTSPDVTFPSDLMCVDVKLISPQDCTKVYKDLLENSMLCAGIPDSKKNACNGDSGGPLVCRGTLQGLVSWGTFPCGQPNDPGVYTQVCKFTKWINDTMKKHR

[4] = biological target: T1, aminopeptidase A (UniProt Q07075 1-957)
T1 chain: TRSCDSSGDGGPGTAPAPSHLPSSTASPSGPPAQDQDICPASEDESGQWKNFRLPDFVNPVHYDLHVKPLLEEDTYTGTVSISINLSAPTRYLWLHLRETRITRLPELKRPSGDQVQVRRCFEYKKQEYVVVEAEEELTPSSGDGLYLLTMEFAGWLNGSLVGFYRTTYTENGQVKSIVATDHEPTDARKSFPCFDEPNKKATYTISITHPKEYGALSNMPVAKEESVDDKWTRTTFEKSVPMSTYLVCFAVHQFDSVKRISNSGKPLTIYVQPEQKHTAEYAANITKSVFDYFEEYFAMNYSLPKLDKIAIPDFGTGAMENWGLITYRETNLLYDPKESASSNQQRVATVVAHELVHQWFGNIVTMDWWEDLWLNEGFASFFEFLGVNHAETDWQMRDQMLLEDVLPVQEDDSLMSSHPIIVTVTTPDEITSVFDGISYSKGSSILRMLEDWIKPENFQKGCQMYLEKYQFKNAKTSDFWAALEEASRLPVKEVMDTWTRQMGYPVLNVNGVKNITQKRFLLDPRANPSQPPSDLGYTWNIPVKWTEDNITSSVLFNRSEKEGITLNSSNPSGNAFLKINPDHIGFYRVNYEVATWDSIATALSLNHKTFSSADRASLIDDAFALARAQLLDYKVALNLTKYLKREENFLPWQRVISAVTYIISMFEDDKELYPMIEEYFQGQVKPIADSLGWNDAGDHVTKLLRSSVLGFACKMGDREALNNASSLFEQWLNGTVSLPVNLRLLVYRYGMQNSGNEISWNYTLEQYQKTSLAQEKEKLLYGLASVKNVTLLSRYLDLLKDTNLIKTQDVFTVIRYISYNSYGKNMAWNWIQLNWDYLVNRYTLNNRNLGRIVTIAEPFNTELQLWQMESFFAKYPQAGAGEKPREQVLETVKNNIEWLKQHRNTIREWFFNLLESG

[5] = biological target: FAP (UniProt Q12884 1-760)
Chain of FAP (Q12884 26-760): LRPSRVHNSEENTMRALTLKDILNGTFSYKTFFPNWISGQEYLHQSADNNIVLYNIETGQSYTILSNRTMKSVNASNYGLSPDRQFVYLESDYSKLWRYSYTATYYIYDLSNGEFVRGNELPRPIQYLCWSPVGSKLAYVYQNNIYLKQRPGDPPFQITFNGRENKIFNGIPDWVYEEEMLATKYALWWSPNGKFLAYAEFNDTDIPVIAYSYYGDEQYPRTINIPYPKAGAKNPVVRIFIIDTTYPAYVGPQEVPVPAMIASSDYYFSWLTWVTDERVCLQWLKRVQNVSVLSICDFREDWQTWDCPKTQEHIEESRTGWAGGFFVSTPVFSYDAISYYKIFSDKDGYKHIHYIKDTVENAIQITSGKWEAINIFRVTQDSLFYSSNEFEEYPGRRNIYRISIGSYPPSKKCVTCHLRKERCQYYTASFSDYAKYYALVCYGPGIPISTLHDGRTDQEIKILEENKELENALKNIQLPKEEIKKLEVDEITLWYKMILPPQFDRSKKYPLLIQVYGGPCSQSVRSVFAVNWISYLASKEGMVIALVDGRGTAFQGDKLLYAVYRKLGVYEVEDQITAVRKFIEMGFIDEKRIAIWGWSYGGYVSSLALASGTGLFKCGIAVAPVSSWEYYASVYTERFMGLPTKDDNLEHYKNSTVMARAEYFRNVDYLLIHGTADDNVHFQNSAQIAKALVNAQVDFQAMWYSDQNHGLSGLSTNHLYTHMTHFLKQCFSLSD

Chain of PSA (P07288 25-261): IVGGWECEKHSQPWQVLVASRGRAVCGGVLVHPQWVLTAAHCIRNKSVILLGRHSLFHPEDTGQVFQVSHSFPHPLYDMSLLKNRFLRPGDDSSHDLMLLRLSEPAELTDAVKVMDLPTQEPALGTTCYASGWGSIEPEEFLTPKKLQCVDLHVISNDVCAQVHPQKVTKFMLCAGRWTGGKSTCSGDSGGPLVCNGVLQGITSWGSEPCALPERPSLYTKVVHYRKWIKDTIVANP

Ki [1]: > 100 µM
Ki [2]: > 100 µM
Ki [3]: > 100 µM
Ki [4]: > 100 µM
Ki [5]: > 100 µM
Binder: CLHSPWC (disulfide 1-7) [cyc-LHSPW]
